Laboratory results: US20260070974A1 (NONA BIOSCIENCES SUZHOU, published 2026)
“And” between values parts separate entries of the source, which are not always exact repeats. Equal values may be shown once.

T1: human Siglec-15 on CHO-K1/human Siglec-15 cells (KYinno, Beijing) (human, UniProt Q6ZMC9 20-328)
T1 sequence: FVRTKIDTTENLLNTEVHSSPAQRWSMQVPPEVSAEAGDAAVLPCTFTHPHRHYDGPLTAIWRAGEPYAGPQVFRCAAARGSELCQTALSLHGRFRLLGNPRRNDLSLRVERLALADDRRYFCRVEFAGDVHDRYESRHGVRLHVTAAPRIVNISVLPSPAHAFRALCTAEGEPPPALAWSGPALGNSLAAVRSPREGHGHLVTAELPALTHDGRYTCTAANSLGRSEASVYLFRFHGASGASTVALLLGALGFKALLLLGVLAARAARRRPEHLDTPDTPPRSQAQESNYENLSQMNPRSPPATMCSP

T2: human Siglec-10-his protein (Acrobiosystems, Cat SIO-H52H9) (human, UniProt Q96LC7 17-546, limits assumed)
T2 construct: Bought protein; not shown: his tag
T2 sequence (looked up): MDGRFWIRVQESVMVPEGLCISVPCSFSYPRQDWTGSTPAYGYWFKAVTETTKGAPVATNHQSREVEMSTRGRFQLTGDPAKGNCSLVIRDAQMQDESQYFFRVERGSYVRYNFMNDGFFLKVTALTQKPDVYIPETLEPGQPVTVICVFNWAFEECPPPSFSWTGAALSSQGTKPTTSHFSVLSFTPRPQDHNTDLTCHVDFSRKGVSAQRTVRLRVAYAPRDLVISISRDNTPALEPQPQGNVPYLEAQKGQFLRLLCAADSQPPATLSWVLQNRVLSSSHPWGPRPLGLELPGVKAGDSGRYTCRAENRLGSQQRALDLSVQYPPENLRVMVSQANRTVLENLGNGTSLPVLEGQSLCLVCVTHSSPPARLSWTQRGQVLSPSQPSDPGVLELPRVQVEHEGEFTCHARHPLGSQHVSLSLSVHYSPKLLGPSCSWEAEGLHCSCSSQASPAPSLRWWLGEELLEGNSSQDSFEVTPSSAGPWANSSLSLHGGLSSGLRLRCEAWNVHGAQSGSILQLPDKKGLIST

B1: PR301286 (antibody, human IgG1, kappa, V domains shown)
VH: QVQLVESGGGVVQPGKSLRLSCAASGFTFSSYGMHWVRQAPGKGLEWVAVIWIDGSNRYYAASVKGRFTISRDNSKNTLYLQMNSLRAEDTAVYYCTRGYGDYAYVMDVWGQGASVTVSS
VL: DIVMTQSPLSLPVTPGEPASISCRSSQSLLPGNGYNYLDWYLQKPGQSPQLLIYLGSNRASGVPDRFSGSGSGTDFTLKISRVEAEDVGIYYCMQALQSPLTFGGGTKVEIKR
notes: Parent of the PTM variants PR301286-1, -3, -5, -6, -7
B2: PR301289 (antibody, human IgG1, kappa, V domains shown)
VH: QVQLVQSGAEVKKPGASVKVSCRASGYTFTSYDINWVRQATGQGLEWMGWMNPHSGDTGYAQNFQGRVTMTWNTSISTAYMELSSLRSEDTAVYYCARRRVGVYYYGMDVWGQGTTVTVSS
VL: ENVLTQSPGTLSLSPGERATLSCRASQSVSSSYFGWYQQKPGQAPRLLIYGASSRATGIPDRFSGSGSGTDFTLTISRLEPEDFAVYYCQQYGSSPITFGQGTRLEIKR
notes: Parent of the PTM variants PR301289-1 and -2
B3: PR300066 (Tab) (antibody, human IgG1, kappa, V domains shown)
VH: QVQLQQPGAELVKPGASVKMSCKASGYTFTSYWITWVIQRPGQGLEWIGDIYCGSDTMHYNEKFKNKATLTVDTSSSTAYMQLSSLTSEDSAVYYCARWWDYGSSYDYFDYWGQGTTLTVSS
VL: DIKMTQSPSSMYASLGERVTITCKASQDINSYLSWFQQKPGKSPKTLIYRANRLVDGVPSRFSGSGSGQDYSLTISSLEYEDMGIYYCLQYDEFPYTFGGGTKLEIKR
notes: variable region from clone 5G12 of WO 2018/057735A1, on human IgG1/kappa constant regions; also called 5G12
B4: PR301285 (antibody, human IgG1, kappa, V domains shown)
VH: QVQLQESGPGLVKPSETLSLTCTVSGGSMISYYWSWLRQPPGKGLEWIGYIYYSGNTNYNPSLKSRITIAVDTSKNQFSLKLNSVTAADTAVYYCARERELHPYYFDYWGQGTLVTVSS
VL: DIQLTQSPSFLSASVGDRVTITCRASQGIDNYLAWYQQKPGKAPKVLIYAASTLQSGVPSRFSGSGSGTEFTLTISSLQPEDFATYYCQQLNSYPLTFGGGTKVEIKR

What follows are binders tested against T1, human Siglec-15 on CHO-K1/human … (assay: flow cytometry on CHO-K1/human Siglec-15 cells).
Protocol: CHO-K1/human Siglec-15 cells (KYinno, Beijing) were adjusted to a density of 1×10⁶/mL with PBS, and the cell suspension was added to a 96-well V-bottom plate at 100 μL/well. The 96-well V-bottom plate was centrifuged at 1000 rpm for 5 min and washed once with PBS+2% FBS. The cells were resuspended in […] of antibody diluted in a gradient (5-fold dilution, starting concentration: 500 nM) and incubated at 4° C. for 1 h, and PR300066 and hIgG1 were used as positive control and negative control, respectively. After 1 h, the cells were washed twice with PBS+2% FBS. The cells were incubated with 100 μL of Alexa Fluor 488 goat anti-human IgG (Jackson, Cat #: 109-545-098) at 4° C. for 1 h in the dark and then washed twice with PBS+2% FBS. The cells were then resuspended in 200 μL of PBS+2% FBS. The fluorescence intensity of the cells was analyzed using a BD FACSCanto™ II flow cytometer.

Row | EC50 | Maximum (MFI) | Binder
1 | 1980 pM | 24200 | B1
2 | 1040 pM | 29200 | B2
3 | 3660 pM and 2200 pM and 1640 pM | – | B3
4 | 553 pM | 20300 | B4

Each binder was assayed against T3, mouse Siglec-15-his protein (Acrobiosystems, Cat #: SG5-M52H7) (mouse) (assay: ELISA, coated mouse Siglec-15-his).
T3 construct: Bought protein; also called mouse Siglec-15 protein
Protocol: (§1) 1 g/mL mouse Siglec-15-his protein (Acrobiosystems, Cat #: SG5-M52H7) dissolved in PBS was added to an ELISA plate at 100 μL/well for coating and the plate was incubated overnight at 4° C. The ELISA plate was then blocked with PBST (PBS+0.05% Tween 20) containing 2% BSA at 200 μL/well and incubated at 37° C. for 1 h. The ELISA plate was washed 4 times with PBST. The anti-Siglec-15 antibody diluted in a gradient (5-fold dilution, starting concentration: 6.67 nM) was added to the ELISA plate at 100 μL/well and the plate was incubated at 37° C. for 1 h. The ELISA plate was washed 4 times with PBST. The goat anti-human IgG (H+L)-HRP (1:5000, Jackson, Cat: 109-035-088) was added at 100 μL/well and the plate was incubated at 37° C. for 1 h. The ELISA plate was washed 4 times with PBST. The TMB substrate (Biopanda, Cat: TMB-S-003) was added at 100 μL/well, and the plate was incubated at room temperature for 5 min, and then the stop buffer (Solarbio, Cat #: C1058) was added at 100 μL/well to stop the reaction.

Row | EC50 | Binder
5 | 51 pM | B1
6 | 36 pM | B2
7 | 19 pM and 23 pM | B3

These binders were tested against T2, human Siglec-10-his protein … (assay: ELISA on coated human Siglec-10-his, antibody at 100 nM and 10 nM, goat anti-human IgG-HRP, OD450).
Protocol: as §1, with “Human Siglec-15 ECD-his” for “1 g/mL mouse Siglec-15-his”, “SG5-H52H3), human Siglec-2-his protein (Acrobiosystems, Cat CD2-H52H8), human Siglec-4a-his protein (Acrobiosystems, Cat MAG-H52H8), human Siglec-3-his protein (Acrobiosystems, Cat CD3-H5226), human Siglec-10-his protein (Acrobiosystems, Cat SIO-H52H9), and human PD-L1/B7-H1-his protein (Acrobiosystems, Cat PD1-H5229), each at 1 μg/mL and” for “#: SG5-M52H7)”, “PBS, were each” for “PBS was”, “(concentrations: 100 nM and 10” for “(5-fold dilution, starting concentration: 6.67”, “Cat” for “Cat:”

Row | binding result | Binder
8 | no binding (tested: 100 nM) | B1
9 | no binding (tested: 100 nM) | B2
10 | no binding (tested: 100 nM) | B3
11 | no binding (tested: 100 nM) | B4
